Test results as given in patent publication US9611285B2, “Fucosyltransferases and their applications” (Jennewein Biotechnologie GmbH, priority 2011, dated 2017).

Key:
[1] = tested on: alpha-1,2-fucosyltransferase His6-Propeptide-WbgL; assay: Acceptor substrate spectrum by HPAEC-PAD activity assay; format: biochemical, Escherichia coli O126; conditions: acceptor substrate instead of 5 mM lactose; 2 mM GDP-β-L-fucose; relative to lactose
Procedure: (§1) Enzyme activity was also determined by HPAEC-PAD analysis for detection of 2′-fucosyllactose. The assay solution contained 2 mM GDP-β-L-fucose, 5 mM lactose, 50 mM Tris-HCl pH 7.6 with 2 mM MnCl2, 1 mM DTT, 1 U alkaline phosphatase in a total volume of 175 μl and was incubated at 30° C. after the addition of […] and purified enzyme solution. The reaction was stopped by heating for 5 min at 95° C. at different time points where the conversion rate was linear. The centrifuged samples were analysed by Dionex HPAEC-PAD (Dionex Corporation, Sunnyvale, Calif., USA) on CarboPac PA1 column using Chromeleon™ 6.40 Software. The elution was carried out with 50 mM NaOH at 30° C. (flow rate 1 mL/min, 50 μL injection volume). The concentration of the generated trisaccharide 2′-fucosyllactose was determined by a standard calibration curve with commercially available 2′-fucosyllactose and used for subsequent calculation of enzyme activity (see FIG. 6).
(§2) For both, HPAEC-PAD and photometric assays, 1 U of His6-Propeptide-WbgL is the amount of enzyme which produces 1 μmol product (GDP or 2′-fucosyllactose) per minute under standard assay conditions.
The substrate spectrum of recombinant His6-Propeptide-WbgL was analysed by HPAEC-PAD according to activity assay described above. Instead of 5 mM lactose different acceptor substrates were tested to determine the relative activity compared to lactose.

[2] = tested on: C[C@@H]1O[C@H](OP(=O)(O)OP(=O)(O)OC[C@H]2O[C@@H](n3cnc4c(=O)[nH]c(N)nc43)[C@H](O)[C@@H]2O)[C@@H](O)[C@H](O)[C@@H]1O; assay: Kinetic analysis by photometric pyruvate kinase/lactate dehydrogenase assay (initial rates, Michaelis-Menten); format: biochemical, Escherichia coli O126; conditions: other: lactose varied 0.05 to 40 mM at 2 mM GDP-beta-L-fucose, GDP-beta-L-fucose varied 0.02 to 4 mM at 10 mM lactose, 30° C., pH 7.6
Procedure: (§3) The photometric assay was performed using the pyruvate kinase/lactate dehydrogenase system for the detection of released GDP (Barratt, D. H., L. Barber, et al. (2001). “Multiple, distinct isoforms of sucrose synthase in pea.” Plant Physiology 127(2): 655-664.). The reaction mixture for the microtiter plate assay contained 50 mM Tris-HCl pH 7.6, 2 mM GDP-beta-L-fucose, 5 mM Lactose, 1 mM phosphoenolpyruvate, 1 mM DTT, 0.25 mM NADH, 2 mM MnCl2, 5 U pyruvate kinase, and 5 U lactate dehydrogenase in a total volume of 250 μl. The reaction was started by addition of 100 μl enzyme solution and followed at 340 nm at 30° C. Control experiments for the detection of side activities were done without acceptor substrate lactose (see FIG. 5).
as §2
(§4) The kinetic constants of His6-Propeptide-WbgL for the acceptor substrate lactose and the donor substrate GDP-beta-L-fucose were derived from initial rate analysis at a variable substrate concentrations using the photometric assay described above. GDP-beta-L-fucose was varied from 0.02 mM to 4 mM at a constant concentration of 10 mM lactose and lactose was altered from 0.05 to 40 mM at a constant concentration of 2 mM GDP-beta-L-fucose. All data were determined by non linear-regression analysis according to the Michaelis-Menten equation using the Sigma Plot 10 software (SPSS Science Software GmbH, Erkrath, Germany).

[3] = tested on: OC[C@H]1O[C@@H](O[C@H]2[C@H](O)[C@@H](O)C(O)O[C@@H]2CO)[C@H](O)[C@@H](O)[C@H]1O; assay: as above; format: biochemical, Escherichia coli O126; conditions: other: lactose varied 0.05 to 40 mM at 2 mM GDP-beta-L-fucose, GDP-beta-L-fucose varied 0.02 to 4 mM at 10 mM lactose, 30° C., pH 7.6
Procedure: as §3, §2, §4

[4] = tested on: E. coli BL21(DE3) ΔlacZ pDEST14-fkp pCOLA-lacY-fucP; assay: Production of 2'-fucosyllactose in recombinant E. coli expressing a fucosyltransferase (HPLC); format: cell-based, Escherichia coli
Procedure: Cells E. coli BL21(DE3) ΔlacZ pDEST14-fkp pCOLA-lacY-fucP were transformed with pACYCDuet-1 carrying the appropriate fucosyltransferase gene. Colonies were grown on 2YT plates with the appropriate antibiotics. 5 ml over night cultures (2YT with antibiotics) were grown of each strain and from this cultures 15 ml mineral medium each were inoculated to 1%. Cells were grown using glycerol as carbon source and at OD600=0.5 were induced with 0.1 mM IPTG and 40 mM lactose and 30 mM fucose were added. Cultures were incubated at 30° C. and 120 rpm. Production of 2′-fucosyllactose was monitored HPLC analysis. The comparison of the amount of 2′-fucosyllactose (2′-FL) produced by expression of FucT2 from Helicobacter pylori compared to the expression of WbgL from Escherichia coli O126 is shown in the following table 1: […]

[5] = pH optimum and metal ion dependency of the enzyme (HPAEC-PAD assay); format: biochemical
Procedure: as §1
To study the optimal pH value for the activity of recombinant His6-Propeptide-WbgL, assays were performed at different pH values of a 50 mM Tris-HCl buffer ranging from pH 6.8 to 8.4. Optimal pH value was 7.6 (see. FIG. 8). Addition of metal ions Mn^2+ to standard assays allowed to investigate the metal ion dependency. All samples were analyzed HAPAEC-PAD as described above.

Molecule: OC[C@H]1O[C@@H](O[C@@H]2[C@@H](CO)OC(O)(CO)[C@H]2O)[C@H](O)[C@@H](O)[C@H]1O (mixture of isomers) [Lactulose]
- Relative activity [1]: 124%

Molecule: CC(=O)N[C@H]1C(O)O[C@H](CO)[C@H](O)[C@@H]1O (stereo partly drawn) [D-GalNAc]
- Relative activity [1]: 0%

Molecule: N[C@H]1C(O)O[C@H](CO)[C@H](O)[C@@H]1O (stereo partly drawn) [D-GalNH2]
- Relative activity [1]: 0%

Molecule: O=C[C@H](O)[C@@H](O)[C@@H](O)[C@H](O)CO [D-Galactose]
- Relative activity [1]: 71%

Molecule: CC(=O)NC1C(O)OC(CO)C(OC2OC(CO)C(O)C(O)C2NC(C)=O)C1O (stereo not shown) [LacDiNAc]
- Relative activity [1]: 0%

Molecule: CC(=O)N[C@H]1C(O)O[C@H](CO)[C@@H](O[C@@H]2O[C@H](CO)[C@H](O)[C@H](O)[C@H]2O)[C@@H]1O (stereo partly shown) [LacNAc Typ II]
- Relative activity [1]: 95%

Molecule: CC(=O)N[C@@H]1[C@@H](O[C@@H]2O[C@H](CO)[C@H](O)[C@H](O)[C@H]2O)[C@H](O)[C@@H](CO)O[C@@H]1O [LacNAc Typ I]
- Relative activity [1]: 28%

Molecule: OC[C@H]1O[C@@H](O[C@H]2[C@H](O)[C@@H](O)C(O)O[C@@H]2CO)[C@H](O)[C@@H](O)[C@H]1O (stereo partly shown) [Lactose]
- Relative activity [1]: 100%

Molecule: OC[C@H]1O[C@@H](O[C@H]2[C@H](O)[C@@H](O)[C@H](OCc3ccccc3)O[C@@H]2CO)[C@H](O)[C@@H](O)[C@H]1O [β-Benzyl-Lactose]
- Relative activity [1]: 50%

Molecule: recombinant alpha-1,2-fucosyltransferase His6-Propeptide-WbgL (Escherichia coli)
- Km [2]: 270 µM
- Vmax [2]: 0.167 µmol/min/mg
- Vmax/Km [2]: 618 µL/min/mg
- Km [3]: 5300 µM
- Vmax [3]: 0.17 µmol/min/mg
- Vmax/Km [3]: 32 µL/min/mg

B1: WbgL: alpha-1,2-fucosyltransferase WbgL from E. coli O126 (SEQ ID No. 2), expressed from pACYC-wbgL (protein, listed as Escherichia coli)
chain: MSIIRLQGGLGNQLFQFSFGYALSKINGTPLYFDISHYAENDDHGGYRLNNLQIPEEYLQYYTPKINNIYKLLVRGSRLYPDIFLFLGFCNEFHAYGYDFEYIAQKWKSKKYIGYWQSEHFFHKHILDLKEFFIPKNVSEQANLLAAKILESQSSLSIHIRRGDYIKNKTATLTHGVCSLEYYKKALNKIRDLAMIRDVFIFSDDIFWCKENIETLLSKKYNIYYSEDLSQEEDLWLMSLANHHIIANSSFSWWGAYLGSSASQIVIYPTPWYDITPKNTYIPIVNHWINVDKHSSC
- Yield 2′-FL ([4]; 0.1 mM IPTG, 40 mM lactose, 30 mM fucose, 30° C., 120 rpm): 4.05 mM
- Amount of fucosylated product 2′-fucosyllactose compared to FucT2 from Helicobacter pylori ([4]; same cultures as Table 3): significantly higher

B2: His6-Propeptide-WbgL: recombinant WbgL with N-terminal His-Tag and S. hyicus lipase propeptide (513 amino acids), expressed from pETHIS6PropwbgL in E. coli (protein)
chain: NDSTTQTTTPLEVAQTSQQETHTHQTPVTSLHTATPEHVDDSKEATPLPEKAESPKTEVTVQPSSHTQEVPALHKKTQQQPAYKDKTVPESTIASKSVESNKATENEMSPVEHHASNVEKREDRLETNETTPPSVDREFSHKIINNTHVNPKTDGQTNVNVDTKTIDTVSPKDDRIDTAQPKQVDVPKENTTAQNKFTSQASDKKPTMSIIRLQGGLGNQLFQFSFGYALSKINGTPLYFDISHYAENDDHGGYRLNNLQIPEEYLQYYTPKINNIYKLLVRGSRLYPDIFLFLGFCNEFHAYGYDFEYIAQKWKSKKYIGYWQSEHFFHKHILDLKEFFIPKNVSEQANLLAAKILESQSSLSIHIRRGDYIKNKTATLTHGVCSLEYYKKALNKIRDLAMIRDVFIFSDDIFWCKENIETLLSKKYNIYYSEDLSQEEDLWLMSLANHHIIANSSFSWWGAYLGSSASQIVIYPTPWYDITPKNTYIPIVNHWINVDKHSSC
modifications: left off: small tags and cut ends
notes: recombinant WbgL with N-terminal His-Tag and S. hyicus lipase propeptide (513 amino acids), expressed from pETHIS6PropwbgL in E. coli
- Optimal pH value ([5]; 50 mM Tris-HCl buffer, pH 6.8 to 8.4): 7.6
- Metal ion dependency (Mn^2+) ([5]; addition of Mn^2+ to standard assays): not dependent on Mn^2+ ions
